Patent US7968091 (GENERAL HOSPITAL, dated 2011)

Biological target: T1, human BMP-2 ligand (carrier-free, R & D Systems), used 125I-labeled and as cold competitor (human, UniProt P12643 283-396, iodinated with [125I] by the modified chloramine-T method (labeled form))
T1 construct: Bought recombinant ligand
Experiment: DSS chemical crosslinking with 125I-BMP-2, Protein A pull-down, SDS-PAGE, autoradiography
Protocol: Ligand iodination and crosslinking. […] This mixture was incubated in the absence or presence of […] disuccinimidyl suberate (DSS, Sigma, St. Louis, Mo.) followed by incubated with Protein A Sepharose beads (Amersham) as previously described (J. L. Babitt et al., J. Biol. Chem., 2005, 280: 29820-29827). Beads were washed with phosphate buffered saline (PBS) and protein eluted by non-reducing Laemmli sample buffer (Bio-Rad). Eluted protein was separated by SDS-PAGE and analyzed by autoradiography.

T1 sequence (P12643 283-396 limits assumed): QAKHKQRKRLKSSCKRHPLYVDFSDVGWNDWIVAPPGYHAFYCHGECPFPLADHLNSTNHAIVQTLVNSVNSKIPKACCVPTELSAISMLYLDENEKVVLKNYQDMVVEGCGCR

- binding result: no binding (tested: 60 ng ALK5.Fc)
B1: ALK5.Fc (a TGF-β type I receptor, R & D Systems) (Fc fusion, UniProt P36897 34-125, looked up)
chain: LQCFCHLCTKDNFTCVTDGLCFVSVTETTDKVIHNSMCIAEIDLIPRDRPFVCAPSSKTGSVTTTYCCNQDHCNKIELPTTVKSSPGLGPVE
notes: Bought fusion protein, negative control; not shown: Fc part of the bought fusion protein; not described
